This note sets out measurements from US10357573B2, “Block copolymer conjugate of physiologically active substance” (Nippon Kayaku Kabushiki Kaisha, priority 2015, dated 2019).

A short description of series [1]: Test Example C-1 intrarenal distribution test. As to conditions: 5 mg/kg as converted to 2-(2-aminoethoxy)-9-(diethylamino)-5H-benzo[a]phenoxazin-5-one, iv once, one hour after administration. The class given is in vivo, nude mouse. The text has this: (§1) A tumor mass of human pancreatic cancer BxPC3 that had been subcultured by subcutaneous transplantation in a BALB/c nude mouse was cut into a block having a size of about 3 mm on each side, and this block was subcutaneously transplanted on the dorsal side of a nude mouse using a trocar. […] One hour after the administration, blood was removed from the mouse under isoflurane anesthesia, frozen embedded slices of the removed tumor and the kidneys were produced, and fluorescence was observed.

The subject of series [2] is human pancreatic cancer BxPC3. As to the kind of experiment: Test Example C-1 intratumor distribution test. As to conditions: 5 mg/kg as converted to 2-(2-aminoethoxy)-9-(diethylamino)-5H-benzo[a]phenoxazin-5-one, iv once, one hour after administration. Format: in vivo, nude mouse.
Description: as §1

Series [3] is described as follows: Light scattering intensity of 1 mg/mL aqueous solution, relative to toluene. Format: physicochemical. The method, then: Regarding the measurement sample for the scattering intensity measurement, a solution obtained by adding ultrapure water to a physiologically active substance-conjugated block copolymer to obtain a concentration of 1 mg/mL, dissolving the block copolymer by irradiating the mixture with ultrasonic waves for 10 minutes under ice cooling, and then filtering the solution through a 0.2-μm membrane filter, was used.
Toluene (manufactured by Junsei Chemical Co., Ltd., special grade) that was used for the measurement of the light scattering intensity, was used after being filtered three times through a 0.2-μm membrane filter.

Series [4] has as its system human colorectal cancer Col-5-JCK and Co-3-KIST, human breast cancer MC-19-JCK. The conditions noted are these: 75 or 50 mg/kg as converted to Ganetespib, iv once, compared to Comparative Example B-1. As to the method:
The tumor volume was determined by measuring the major axis (L: mm) and the minor axis (W: mm) of the tumor, and calculating the volume by the calculation formula: (L×W^2)/2.

Series [5] can be described thus: Test Example A-2 intrarenal distribution test. Format: in vivo, C.B-17SCID mouse. As to conditions: 50 mg/kg as converted to 7-ethyl-10-hydroxycamptothecin, iv once, 30 minutes after administration.
In series [6] the test system is human pancreatic cancer BxPC3. Nature of the series: Test Example A-1 intratumor distribution test. The class given is in vivo, nude mouse. The conditions noted are these: 50 mg/kg as converted to 7-ethyl-10-hydroxycamptothecin, iv once, 30 minutes after administration. From the text: Thirty minutes after the administration, blood was removed from the mouse under isoflurane anesthesia, frozen embedded slices of the removed tumor were produced, and fluorescence was observed.

The procedure of series [7]: As a control group, a 5% glucose injection solution was intravenously administered once through the caudal vein.
Polysorbate 80 was added thereto in an amount equal to the amount of anhydrous ethanol, and the mixture was sufficiently mixed. This was used as a preparation stock solution.
After 3, 5, 7, 11, and 14 days from the day of administration of the various compounds, blood was collected through the subclavian vein without anesthesia using a 1-mL disposable syringe with a 26 G needle. About 3 μL of an EDTA-2K solution had been added in advance to the syringe, and this solution was sufficiently mixed with the blood thus collected. The resultant solutions were used as analysis samples. The blood samples were subjected to a blood cell analysis using a blood cell analysis apparatus XT-2000iV (Sysmex Corp.).

Series [8] has as its system human lung cancer H460. As to the kind of experiment: Test Example C-4 antitumor effect test in human lung cancer-transplanted nude mouse. Format: in vivo. The conditions noted are these: 60 mg/kg as converted to cabazitaxel. The method, then: A tumor mass of human lung cancer H460 that had been subcutaneously subcultured in a nude mouse was cut into a block having a size of about 3 mm on each side, and this block was subcutaneously transplanted on the dorsal side of a nude mouse using a trocar.
A relative tumor volume was determined from the tumor volumes obtained on the day of administration and on the 15th day after the administration, and this was employed as an index for the antitumor effect. The tumor volume was determined by measuring the major axis (L: mm) and the minor axis (W: mm) of the tumor, and calculating the volume by the calculation formula: (L×W^2)/2.

A short description of series [9]: Maximum tolerated dose / maximum non-lethal dose, single intravenous administration. As to conditions: as converted to cabazitaxel, iv once through the caudal vein. The class given is in vivo, mice.
Series [10] relates to human pancreatic cancer BxPC3. Nature of the series: Test Example C-3 antitumor effect test in human pancreatic cancer-transplanted nude mouse. The class given is in vivo. The conditions noted are these: 60 mg/kg as converted to cabazitaxel. The method, then:
A tumor mass of human pancreatic cancer BxPC3 that had been subcutaneously subcultured in a nude mouse was cut into a block having a size of about 3 mm on each side, and this block was subcutaneously transplanted on the dorsal side of a nude mouse using a trocar.
A relative tumor volume was determined from the tumor volumes obtained on the day of administration and on the 8th day after the administration, and this was employed as an index for the antitumor effect. The tumor volume was determined by measuring the major axis (L: mm) and the minor axis (W: mm) of the tumor, and calculating the volume by the calculation formula: (L×W^2)/2.

[11] abbreviates: compared to cabazitaxel 30 mg/kg.

Turning to “2-(2-aminoethoxy)-9-(diethylamino)-5H-benzo[a]phenoxazin-5-one Conjugate of polyethylene glycol (2 Kilodaltons)-α,β-polyaspartic Acid (12.5 Polymer) Block Copolymer [Comparative Example C-3]”, the “tissue distribution in kidney slices (fluorescence)” value in [1] is “fluorescence was observed in the renal tubules”. In [2], the “tissue distribution in tumor slices (fluorescence)” value (“tissue distribution in tumor slices” for short) was “migration and accumulation in the tumor tissue was low”. For the same substance, in series [3] (1 mg/mL aqueous solution vs standard toluene solution under the same conditions), the “relative ratio between the light scattering intensity and the light scattering intensity of toluene” value was “less than twice”. The “self-association in aqueous solution” value in series [3] (aqueous solution) is “non-associating”.
Consider “4-isopropyl-6-(4-(1-methyl-1H-indol-5-yl)-5-methylene-4,5-dihydro-1H-1,2,4-triazol-3-yl)benzene-1,3-diol Conjugate of polyethylene glycol (2 Kilodaltons)-polyglutamic Acid (7.9 Polymer) Block Copolymer [Example B-1]”, for which, in series [4], the “antitumor effect” value is given as “superior effect in both subcutaneous tumor models at the same dose”.
Regarding “7-ethyl-10-hydroxycamptothecin (EHC) and 2-(2-aminoethoxy)-9-(diethylamino)-5H-benzo[a]phenoxazin-5-one Conjugate of polyethylene glycol (2 Kilodaltons)-polyglutamic Acid (7.6 Polymer) Block Copolymer [Example A-4]”, the “tissue distribution in kidney slices (fluorescence)” value in series [5] was “fluorescent signals were observed in the blood vessels and the renal tubules of the kidneys”. Besides, the “tissue distribution in tumor slices” value in series [6] is listed as “could penetrate into deep parts of a tumor tissue”.
As to “7-ethyl-10-hydroxycamptothecin (EHC) and 2-(2-aminoethoxy)-9-(diethylamino)-5H-benzo[a]phenoxazin-5-one Conjugate of polyethylene glycol (12 Kilodaltons)-polyglutamic Acid (25 Polymer) Block Copolymer [Comparative Example A-4, reference compound]”, the “tissue distribution in kidney slices (fluorescence)” value in series [5] is “fluorescence was not recognized in areas other than the blood vessels of the kidneys”. Further, the “tissue distribution in tumor slices” value in series [6] is “did not penetrate into deep parts of the tumor tissue”.
Consider “Cabazitaxel (CBZ) and n-butylamine Conjugate of polyethylene glycol (2 Kilodaltons)-α,β-polyaspartic Acid (12.5 Polymer) Block Copolymer [Example C-1]”, for which, in [7] (60 mg/kg as converted to cabazitaxel, iv once, 5th day after administration), the “Number of blood reticulocytes” value is 52.69 ± 13.95 ×10^4/μL. In series [7] (5 days after administration), the “prolonged hematotoxicity” value was “prolonged hematotoxicity was not recognized”. In addition, the “antitumor effect” value in [8] (setting [11]) and in [10] (setting [11]) was “stronger tumor proliferation suppressing action” throughout. Moreover, the Relative tumor volume in series [8] (iv once, 15th day after administration, day of administration = 1.0, average ± SD) is recorded as 0.560 ± 0.201; in [10] (iv once, 8th day after administration, day of administration = 1.0, average ± SD), 0.83 ± 0.10. The substance further had a maximum tolerated dose in series [9] of 60 mg/kg.
